8 molecules from patent US20210347908A1 (ELPISCIENCE SUZHOU BIOPHARMA, published 2021) can be followed below.

In test [1] the target is T1, Fc tagged human SIRPα v2 ECD recombinant protein (human).
T1 construct: range 1-369; cloned range M1-R369 includes the signal peptide; also called hSIRPα V2
Briefly: ELISA. Here is the method:
(§1) Binding specificity of the purified hybridoma antibodies against SIRP family members was detected by ELISA assay using recombinant proteins of Fc tagged human SIRPα v1 ECD, human SIRPα v2 ECD, human SIRPβ ECD and human SIRPγ ECD. Briefly the antibodies were incubated with ELISA microplate coated antigens at 37° C. for 1 hour. After washing, horseradish peroxidase (HRP) labeled anti-mouse or anti-human IgG 2nd Ab (Sigma) was added and incubated at 37° C. for 1 hour. Then, 100 μl/well of TMB solution (Biotechnology) was added. After incubation for 15 minutes at room temperature, the reaction was stopped by the addition of 50 μl of 1N HCl. OD 450 nm was read and EC₅₀ was calculated. Other than 060 and HEFLB, all of the antibodies as tested can bind with both human SIRPα v1 and SIRPα v2. 060 and HEFLB can bind with human SIRPα v1 but not v2. Other than 055, all of the antibodies as tested can bind with human SIRPβ. In comparison with other known anti-SIRPα antibodies, only 022, 035 and 050 can bind with human SIRPγ weakly.
(§2) The purified chimeric antibodies were applied for binding specificity analysis and species cross reactivity analysis (refer to methods described in Example 3.3 and 3.4). FIGS. 1A to 1D show binding specificity of anti-SIRPα chimeric antibodies against recombinant proteins of human SIRPα v1 ECD (A), human SIRPα v2 ECD (B), human SIRPβ ECD (C) and human SIRPγ ECD (D) as measured by ELISA analysis.

For test [2], the target named is T2, Fc tagged human SIRPβ ECD recombinant protein (human, UniProt O00241 30-371).
T2 construct: range 1-371; cloned range includes the signal peptide; also called hSIRPβ; not shown: human IgG Fc region (hFc) of the pCPC vector
The test can be described thus: ELISA. As for the experimental part: as §1, §2

Test [3] addresses T3, Fc tagged human SIRPα v1 ECD recombinant protein (human, UniProt P78324 31-370).
T3 construct: range 1-370; cloned range M1-R370 includes the signal peptide; also called hSIRPα V1; not shown: human IgG Fc region (hFc) of the pCPC vector
Briefly: ELISA. Here is the method:
as §1, §2

For test [4], the target named is T1, Fc tagged human SIRPα v2 ECD …. The test can be described thus: ELISA. Here is the method: as §1, §2
This is another data set of the same source.

Test [5] concerns the target T2, Fc tagged human SIRPβ ECD recombinant …. The test can be described thus: ELISA. As for the experimental part:
as §1, §2
The source holds these as a separate data set.

In test [6] the target is T3, Fc tagged human SIRPα v1 ECD …. Briefly: ELISA. As for the experimental part: as §1, §2
The source holds these as a separate data set.

In test [7] the target is T4, full length human SIRPα v1 stably expressed on CHOK1 cells (human, UniProt P78324 31-504).
T4 construct: whole, on cells; also called CHOK1-human SIRPα v1-1B4 cells; CHOK1-human SIRPα v1
The test can be described thus: FACS on CHOK1 cells. As for the experimental part:
Species cross reactivity of the purified hybridoma antibodies against human, cyno and mouse SIRPα was determined by FACS assay using CHOK1-human SIRPα v1-1B4 cells, CHOK1-cyno SIRPα-2A2 cells, and CHOK1-C57BL/6 mouse SIRPα-2.22 cells, which stably expressing SIRPα protein. Briefly the antibodies were incubated with 2×10⁵ target cells at 4° C. for 1 hour. After washing, fluorescence labeled anti-mouse or anti-human IgG 2nd antibody (Life Technologies) was added and incubated at 4° C. for 1 hour. Geometric median fluorescence intensity was detected and EC₅₀ was calculated. In particular, it is noted, in contrast to the other antibodies tested in the same experiment, 060 cannot bind with cyno SIRPα and 035 has cross reactivity against C57BL/6 mouse SIRPα. […]

For test [8], the target named is T5, full length C57BL/6 mouse SIRPα stably expressed on CHOK1 cells (mouse (C57BL/6), UniProt P97797 32-513).
T5 construct: whole, on cells; also called CHOK1-C57BL/6 mouse SIRPα-2.22 cells
T5 sequence (looked up): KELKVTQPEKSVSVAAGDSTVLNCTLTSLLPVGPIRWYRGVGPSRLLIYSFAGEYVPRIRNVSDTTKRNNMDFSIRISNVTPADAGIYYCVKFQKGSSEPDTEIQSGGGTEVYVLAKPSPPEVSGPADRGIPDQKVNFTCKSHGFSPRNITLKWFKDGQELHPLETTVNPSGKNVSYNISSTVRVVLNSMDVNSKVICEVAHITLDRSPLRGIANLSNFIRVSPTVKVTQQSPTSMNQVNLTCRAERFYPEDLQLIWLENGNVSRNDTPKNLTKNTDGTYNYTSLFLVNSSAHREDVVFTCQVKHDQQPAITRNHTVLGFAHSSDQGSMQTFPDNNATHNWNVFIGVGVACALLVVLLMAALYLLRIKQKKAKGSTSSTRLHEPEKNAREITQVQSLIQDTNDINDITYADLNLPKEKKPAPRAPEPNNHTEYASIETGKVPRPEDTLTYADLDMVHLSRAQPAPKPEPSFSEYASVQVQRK
Briefly: FACS on CHOK1 cells. As for the experimental part:
(§3) Species cross reactivity of the purified hybridoma antibodies against human, cyno and mouse SIRPα was determined by FACS assay using CHOK1-human SIRPα v1-1B4 cells, CHOK1-cyno SIRPα-2A2 cells, and CHOK1-C57BL/6 mouse SIRPα-2.22 cells, which stably expressing SIRPα protein. Briefly the antibodies were incubated with 2×10⁵ target cells at 4° C. for 1 hour. After washing, fluorescence labeled anti-mouse or anti-human IgG 2nd antibody (Life Technologies) was added and incubated at 4° C. for 1 hour. Geometric median fluorescence intensity was detected and EC₅₀ was calculated. In particular, it is noted, in contrast to the other antibodies tested in the same experiment, 060 cannot bind with cyno SIRPα and 035 has cross reactivity against C57BL/6 mouse SIRPα.
as §2

For test [9], the target named is T4, full length human SIRPα v1 stably …. The test can be described thus: FACS on CHOK1 cells. Here is the method:
as §3, §2
The source holds these as a separate data set.

For test [10] the target is unchanged. The test can be described thus: FACS on CHOK1 cells. The source holds these as a separate data set.

Substitutions are numbered along the chain they refer to. Where two headings read alike, the source gives them in different places.

T2 sequence (O00241 30-371 limits assumed, form in doubt): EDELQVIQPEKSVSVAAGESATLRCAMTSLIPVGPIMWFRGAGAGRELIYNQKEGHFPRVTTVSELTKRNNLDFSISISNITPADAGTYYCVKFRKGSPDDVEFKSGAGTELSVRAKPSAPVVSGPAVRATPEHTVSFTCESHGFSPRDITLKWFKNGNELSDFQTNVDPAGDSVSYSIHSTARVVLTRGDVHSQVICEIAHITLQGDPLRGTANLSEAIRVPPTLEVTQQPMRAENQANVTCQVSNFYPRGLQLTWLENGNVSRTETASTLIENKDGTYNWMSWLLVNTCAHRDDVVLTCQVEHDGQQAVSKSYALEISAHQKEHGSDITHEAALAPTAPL
T4 sequence (P78324 31-504): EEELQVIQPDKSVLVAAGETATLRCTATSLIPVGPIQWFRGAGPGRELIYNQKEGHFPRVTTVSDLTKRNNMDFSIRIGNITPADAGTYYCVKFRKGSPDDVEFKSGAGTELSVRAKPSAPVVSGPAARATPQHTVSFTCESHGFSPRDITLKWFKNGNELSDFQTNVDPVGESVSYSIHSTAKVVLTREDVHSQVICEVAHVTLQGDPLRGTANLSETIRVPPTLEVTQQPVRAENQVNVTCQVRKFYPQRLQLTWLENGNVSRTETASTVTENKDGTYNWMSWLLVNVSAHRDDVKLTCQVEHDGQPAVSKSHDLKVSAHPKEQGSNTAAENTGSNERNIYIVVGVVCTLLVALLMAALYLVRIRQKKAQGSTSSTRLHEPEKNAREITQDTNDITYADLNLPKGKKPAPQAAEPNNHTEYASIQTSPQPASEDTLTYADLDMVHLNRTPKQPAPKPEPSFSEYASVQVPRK
T3 sequence (P78324 31-370 limits assumed): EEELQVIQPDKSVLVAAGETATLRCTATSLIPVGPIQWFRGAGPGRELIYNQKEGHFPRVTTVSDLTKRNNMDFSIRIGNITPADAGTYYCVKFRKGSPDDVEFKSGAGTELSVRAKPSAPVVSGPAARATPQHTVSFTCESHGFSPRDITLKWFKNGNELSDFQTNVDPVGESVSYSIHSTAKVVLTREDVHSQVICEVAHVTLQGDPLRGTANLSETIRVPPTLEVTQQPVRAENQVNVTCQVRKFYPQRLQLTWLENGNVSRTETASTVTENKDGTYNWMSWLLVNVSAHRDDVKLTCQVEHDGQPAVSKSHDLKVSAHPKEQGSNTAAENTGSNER

B1: chimeric antibody 022c (antibody, V domains shown)
VH: QIQLVQSGPELKKPGETVKISCKASGYTFTDYAMHWVKQAPGKGLKWMGWKNTETGESTYAEDFKGRFAFFLETSASTAYLQINNVKNEDTATYFCARGGYGSNYVMDYWGQGTSVIVSS
VL: DIQMTQSSSSFSVSLGDRVTITCKASEDIYNRLAWYQQKPGNAPRLLISGATSLETGVPSRFSGSGSGKDYTLSITSLQTEDVATYYCQQYWNSPRTFGGGTKLEIK
On to B1, for which the EC50 in test [1] was determined as 0.11 nM; in [2], 0.08 nM; in test [3], 0.11 nM; in [4], 0.11 nM; in test [5], 0.08 nM; in test [6], 0.11 nM. Besides, the EC50 in [7] and in [9] was 1.7 nM throughout. The binding result in test [8] is “no binding (tested: 10 nM)”.

B2: chimeric antibody 074c (antibody, V domains shown)
VH: QVQLQQPRAELVKPGASVMLSCKASGYTFSSYWIHWVRQGPGQGLEWIGLIHPNSGNTDCSETFKNKATLTVDTSSSTAYMQLSSLASEDSAVYYCARDGASYDWFVHWGQGTLVTVSA
VL: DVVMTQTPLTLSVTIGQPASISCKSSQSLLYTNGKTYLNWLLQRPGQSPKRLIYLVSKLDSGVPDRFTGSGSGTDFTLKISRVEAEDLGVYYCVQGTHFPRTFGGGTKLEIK
Turning to B2, the EC50 in test [1] turned out to be 0.14 nM; in test [2], 0.11 nM; in test [3], 0.14 nM; in test [4], 0.14 nM; in test [5] it was 0.11 nM; in [6] it was 0.14 nM. Besides, the EC50 in test [7] and in test [9] was 5.5 nM throughout. Further, in [8], the binding result is “no binding (tested: 10 nM)”.

B3: chimeric antibody 050c (antibody, V domains shown)
VH: QIQLVQSGPELKKPGETVKISCKASGYTFTHYSMHWVKQAPGKGLKWMGWINTETAEPTYVDDFKGRFAFSLEASASTAFFQINNLKNEDTATYFCARGGLRQGDYWGQGTTLTVSS
VL: QIVLTQSPPIMSASPGEKVTLTCSATSSVSASYLYWFQQKPGSSPKLWIYSTSNLASGVPARFSGSGSGTSYSLTISNMEPADAASYFCHQWSSYPYTFGGGTKLEIK
For the molecule B3, the EC50 in test [1] was 0.1 nM; in test [2], 0.08 nM; in [3], 0.11 nM; in test [4], 0.1 nM; in test [5], 0.08 nM; in [6] it was 0.11 nM. Also, the EC50 in test [7] and in test [9] was 2.4 nM throughout. Besides, the binding result in test [8] was “no binding (tested: 10 nM)”.

B4: reference antibody KWAR23 (antibody, V domains shown)
VH: EVQLQQSGAELVKPGASVKLSCTASGFNIKDYYIHWVQQRTEQGLEWIGRIDPEDGETKYAPKFQDKATITADTSSNTAYLHLSSLTSEDTAVYYCARWGAYWGQGTLVTVSS
VL: B3 VL with P9A, T26S, A31S, F37Y, N78S, P81A, A82E, Y97R, G101A, I107L
For the molecule B4, the concentration for a half-maximal effect (EC50) in test [1] turned out to be 0.09 nM; in [2], 0.08 nM; in test [3], 0.1 nM; in [4] it was 0.09 nM; in test [5] it was 0.08 nM; in test [6], 0.1 nM. Besides, the half-maximal effective concentration (EC50) in [7], in [9] and in test [10] was 2.8 nM each time. In addition, in [8], the binding result is on record as “no binding (tested: 10 nM)”.

B5: chimeric antibody 035c (antibody, V domains shown)
VH: QIQLVQSGPELRKPGETVKISCKASGYSFTNYAMNWVKQAPGKVLKWMGFINTYTGEPTYADDFKGRFAFSLETSASTAYLQINNLKNEDTATYFCTRTRGYYDFDGGAFDYWGQGTSLTVSS
VL: DIVMTQSQKFMSTSIGDRVSVTCKASQNVGTHLAWYQQKPGQSPKALIFSASYRYIGVPDRFTGSGSGTDFTLTITNVQSEDLAEYFCQQYNTYPLTFGAGTKLELK
On to B5, for which the EC50 in test [1], in test [2], in test [3], in test [4], in test [5] and in test [6] was 0.08 nM each time. The EC50 in [7] was 1.3 nM; in [9] it was 1.3 nM; in test [10] it was 1.5 nM. Further, the “MFI at 10 nM” value in test [8] is 13400 MFI.

B6: chimeric antibody 001c (antibody, V domains shown)
VH: EVKLEESGGGLVQPGGSMKLSCVASGFTFRNYWMNWVRQSPERGLEWIAEISLKSNTYATHYAESVKGRFAISRDGSKSSFYLQMNDLRAEDTGIYYCTTFTKVVADWHLDVWGAGTTVTVSS
VL: DVLMTQTPLSLPVSLGDQASISCRSSQNIVHSNGNTYLEWYLQKPGQSPKLLIYKVSNRFSGVPDRFSGSGSGTDFTLRISRVEAEDLGVYYCFQGSHVPFTFGSGTKLEIK
Take B6: the EC50 in [1] worked out at 0.09 nM; in test [2], 0.12 nM; in [3], 0.12 nM; in test [4], 0.09 nM; in test [5], 0.12 nM; in [6] it was 0.12 nM. Further, the EC50 in [7] and in test [9] was 1.7 nM each time. For the same molecule, in [8], the binding result is “no binding (tested: 10 nM)”.

B7: chimeric antibody 032c (antibody, V domains shown)
VH: B6 VH with K3R, A24V, S52T, G76D, A90P
VL: B6 VL with S14N
Turning to B7, the 50% effective concentration (EC50) in test [1] is 0.11 nM; in [2] it was 0.12 nM; in test [3] it was 0.12 nM; in [4], 0.11 nM; in test [5], 0.12 nM; in [6], 0.12 nM. Besides, the EC50 in test [7] and in [9] was 3 nM in each case. Further, the binding result in [8] is given as “no binding (tested: 10 nM)”.

B8: chimeric antibody 002c (antibody, V domains shown)
VH: B6 VH with K19I, S52T, G76D, A90P
VL: B6 VL with V56I, K112Q
As to B8, the EC50 in [1] is 0.06 nM; in test [2] it was 0.11 nM; in [3] it was 0.06 nM; in test [4] it was 0.06 nM; in test [5], 0.11 nM; in test [6], 0.06 nM. The EC50 in test [7] and in test [9] was 2.4 nM in each case. Moreover, the binding result in test [8] is on record as “no binding (tested: 10 nM)”.
